From PMC2713827, “Characterization of a Lamellocyte Transcriptional Enhancer Located within the misshapen Gene of Drosophila melanogaster”

Target: T1, dFos DNA-binding domain;dJun DNA-binding domain (Drosophila melanogaster;Drosophila …, UniProt P21525;P18289 418-481;212-275, |)
T1 sequence 1: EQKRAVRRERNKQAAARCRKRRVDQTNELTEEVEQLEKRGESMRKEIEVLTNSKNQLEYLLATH
T1 sequence 2: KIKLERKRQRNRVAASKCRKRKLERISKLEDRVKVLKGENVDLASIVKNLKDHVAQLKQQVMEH
Experiment: EMSA; 10 mM Tris-HCl pH 8.0, 10 mM DTT, 2.5 mM MgCl2, 10% glycerol, poly(dI-dC), BSA, 100 ng dJun and dFos, 1,000 cpm 32P probe; temperature not stated
Conditions: protein: recombinant;recombinant; tags: 6xHis;6xHis; copies: 1;1; label: 32P

B1: hMTII wt AP-1 probe (dsDNA)
DNA 1: GAGCCGCAAGTGACTCAGCGCGGGGCGTGTGCAG
DNA 2: CTGCACACGCCCCGCGCTGAGTCACTTGCGGCTC
- binding result: binds
